Reference: publication PMC5201417, “Drosophila non-muscle myosin II motor activity determines the rate of tissue folding” (eLife, 2016)

B1: Drosophila myosin regulatory light chain (Sqh), wild type (natural protein, Drosophila melanogaster, UniProt P40423 1-174, looked up)
light: MSSRKTAGRRATTKKRAQRATSNVFAMFDQAQIAEFKEAFNMIDQNRDGFVEKEDLHDMLASLGKNPTDDYLDGMMNEAPGPINFTMFLTLFGERLQGTDPEDVIKNAFGCFDEENMGVLPEDRLRELLTTMGDRFTDEDVDEMYREAPIKNGLFDYLEFTRILKHGAKDKDEQ
notes: Drosophila myosin regulatory light chain Sqh (spaghetti squash); 19 kDa on the gel; also called RLC; RLC-TS; source: Sf9 insect cells (baculovirus, polycistronic vector with Mlc-c), co-expressed and co-purified with the heavy chain
B2: Drosophila myosin essential light chain (Mlc-c) (natural protein, Drosophila melanogaster, UniProt P54357 1-147, looked up)
light: MAAYTEDQLAEFQEAFNLFDNRGDGKIQLSQVGECLRALGQNPTESDVKKCTHQLKPDERISFEVFLPIYQAISKARSGDTADDFIEGLRHFDKDASGYISSAELRHLLTTLGEKLTDEEVEQLLANMEDQQGNINYEEFVRMVMSG
notes: Drosophila myosin essential light chain Mlc-c; 16 kDa on the gel; also called ELC; source: Sf9 insect cells (baculovirus, polycistronic vector with Sqh), co-expressed and co-purified with the heavy chain

Legend:
[1] = target: Drosophila non-muscle myosin II heavy chain, full length (amino acids 1-1971) (Drosophila melanogaster) (UniProt Q99323); experiment: co-purification (Flag affinity chromatography, stained SDS gel); heavy chain and both light chains co-expressed in Sf9 cells, purified via Flag affinity chromatography (HMM also by size exclusion chromatography); PageBlue-stained 4-12% Bis-Tris gel
Drosophila non-muscle myosin II heavy chain, full length (amino acids 1-1971) (Drosophila melanogaster), sequence (Q99323 other isoform, or with tags, fused parts or gaps): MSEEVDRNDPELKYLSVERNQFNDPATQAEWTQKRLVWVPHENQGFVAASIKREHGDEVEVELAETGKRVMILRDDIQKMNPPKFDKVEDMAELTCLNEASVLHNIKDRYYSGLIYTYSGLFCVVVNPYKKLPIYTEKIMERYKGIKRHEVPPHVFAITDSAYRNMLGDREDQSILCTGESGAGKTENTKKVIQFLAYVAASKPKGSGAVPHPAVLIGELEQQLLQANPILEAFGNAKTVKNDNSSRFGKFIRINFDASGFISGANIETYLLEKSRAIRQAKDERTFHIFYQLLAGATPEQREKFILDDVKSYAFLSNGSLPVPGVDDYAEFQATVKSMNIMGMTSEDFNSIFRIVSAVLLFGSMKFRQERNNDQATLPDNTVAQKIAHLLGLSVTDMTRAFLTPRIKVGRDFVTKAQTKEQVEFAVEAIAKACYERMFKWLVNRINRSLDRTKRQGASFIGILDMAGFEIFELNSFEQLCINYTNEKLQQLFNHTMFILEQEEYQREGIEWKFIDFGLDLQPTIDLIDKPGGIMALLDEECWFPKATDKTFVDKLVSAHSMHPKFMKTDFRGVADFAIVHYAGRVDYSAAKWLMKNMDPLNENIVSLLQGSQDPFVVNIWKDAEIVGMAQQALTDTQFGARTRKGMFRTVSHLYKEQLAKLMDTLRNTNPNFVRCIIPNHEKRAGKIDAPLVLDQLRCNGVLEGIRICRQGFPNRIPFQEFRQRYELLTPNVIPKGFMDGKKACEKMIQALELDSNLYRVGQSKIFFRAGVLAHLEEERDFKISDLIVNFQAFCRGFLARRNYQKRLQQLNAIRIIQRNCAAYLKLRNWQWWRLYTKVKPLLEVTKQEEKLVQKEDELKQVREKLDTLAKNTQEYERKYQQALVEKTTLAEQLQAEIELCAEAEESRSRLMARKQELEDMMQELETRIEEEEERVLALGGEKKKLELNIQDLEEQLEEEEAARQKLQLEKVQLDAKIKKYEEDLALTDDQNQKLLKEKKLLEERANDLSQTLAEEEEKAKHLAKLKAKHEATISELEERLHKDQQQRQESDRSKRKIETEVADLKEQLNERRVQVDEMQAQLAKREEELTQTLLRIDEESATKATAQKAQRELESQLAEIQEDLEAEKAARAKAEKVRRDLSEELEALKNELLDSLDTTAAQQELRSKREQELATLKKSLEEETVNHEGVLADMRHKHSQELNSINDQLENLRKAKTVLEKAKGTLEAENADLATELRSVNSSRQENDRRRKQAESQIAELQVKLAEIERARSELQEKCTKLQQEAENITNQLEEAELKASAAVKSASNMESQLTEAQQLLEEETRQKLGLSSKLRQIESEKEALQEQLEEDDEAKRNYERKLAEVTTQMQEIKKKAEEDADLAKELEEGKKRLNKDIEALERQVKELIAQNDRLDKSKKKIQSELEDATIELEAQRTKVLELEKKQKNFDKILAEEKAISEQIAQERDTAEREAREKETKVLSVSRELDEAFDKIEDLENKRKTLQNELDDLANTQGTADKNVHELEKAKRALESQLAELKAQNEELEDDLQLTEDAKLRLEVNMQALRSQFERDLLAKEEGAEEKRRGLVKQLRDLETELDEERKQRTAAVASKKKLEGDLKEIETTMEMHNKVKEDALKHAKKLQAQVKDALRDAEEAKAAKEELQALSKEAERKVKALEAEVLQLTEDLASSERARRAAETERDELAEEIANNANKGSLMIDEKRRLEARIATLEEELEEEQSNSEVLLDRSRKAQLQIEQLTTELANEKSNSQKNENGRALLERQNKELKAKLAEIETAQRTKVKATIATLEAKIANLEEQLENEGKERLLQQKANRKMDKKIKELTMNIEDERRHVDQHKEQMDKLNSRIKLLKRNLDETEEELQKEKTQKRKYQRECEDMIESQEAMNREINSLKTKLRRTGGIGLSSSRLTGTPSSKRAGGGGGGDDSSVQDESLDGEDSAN

[2] = target: Drosophila non-muscle myosin II heavy chain, HMM construct (amino acids 1-1363) (Drosophila melanogaster) (UniProt Q99323); experiment: as above
Drosophila non-muscle myosin II heavy chain, HMM construct (amino acids 1-1363) (Drosophila melanogaster), sequence (Q99323 other isoform, or with tags, fused parts or gaps): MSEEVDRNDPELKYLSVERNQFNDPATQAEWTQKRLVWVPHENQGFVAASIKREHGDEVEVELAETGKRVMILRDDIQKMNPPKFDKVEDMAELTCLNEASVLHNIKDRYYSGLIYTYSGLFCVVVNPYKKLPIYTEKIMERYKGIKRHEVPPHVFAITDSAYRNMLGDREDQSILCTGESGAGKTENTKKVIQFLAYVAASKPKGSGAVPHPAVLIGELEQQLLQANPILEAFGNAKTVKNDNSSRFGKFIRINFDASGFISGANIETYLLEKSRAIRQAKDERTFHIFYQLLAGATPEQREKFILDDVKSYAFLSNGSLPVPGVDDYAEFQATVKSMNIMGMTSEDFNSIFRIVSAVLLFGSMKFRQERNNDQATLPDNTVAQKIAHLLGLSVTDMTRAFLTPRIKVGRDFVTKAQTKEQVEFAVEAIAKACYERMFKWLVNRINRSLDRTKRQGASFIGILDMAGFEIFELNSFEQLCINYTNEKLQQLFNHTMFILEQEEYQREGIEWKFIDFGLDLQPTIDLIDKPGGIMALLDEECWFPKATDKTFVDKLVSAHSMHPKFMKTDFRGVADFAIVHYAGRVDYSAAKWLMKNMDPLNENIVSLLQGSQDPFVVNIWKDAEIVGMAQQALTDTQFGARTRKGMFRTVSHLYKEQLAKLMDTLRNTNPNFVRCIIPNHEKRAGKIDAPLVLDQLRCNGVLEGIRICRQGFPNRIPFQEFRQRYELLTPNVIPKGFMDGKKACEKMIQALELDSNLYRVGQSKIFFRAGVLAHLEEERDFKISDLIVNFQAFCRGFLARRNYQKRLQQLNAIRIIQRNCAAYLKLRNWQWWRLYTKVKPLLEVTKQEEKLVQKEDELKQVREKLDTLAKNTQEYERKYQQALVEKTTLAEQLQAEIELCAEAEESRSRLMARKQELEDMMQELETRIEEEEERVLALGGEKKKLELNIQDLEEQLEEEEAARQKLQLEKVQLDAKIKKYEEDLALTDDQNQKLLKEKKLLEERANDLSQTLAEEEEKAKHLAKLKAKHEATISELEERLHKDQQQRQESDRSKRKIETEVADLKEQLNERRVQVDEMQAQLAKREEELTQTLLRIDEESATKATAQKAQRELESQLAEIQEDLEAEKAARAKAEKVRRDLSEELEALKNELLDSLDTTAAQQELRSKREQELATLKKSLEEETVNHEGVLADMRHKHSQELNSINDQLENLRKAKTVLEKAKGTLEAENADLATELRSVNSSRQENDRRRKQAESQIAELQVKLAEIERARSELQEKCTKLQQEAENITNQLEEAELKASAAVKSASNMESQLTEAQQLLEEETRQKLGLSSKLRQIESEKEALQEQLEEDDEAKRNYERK

[3] = target: filamentous actin from rabbit skeletal muscle (rabbit) (UniProt P68135)
[4] = target: T1, Drosophila non-muscle myosin II heavy chain, HMM construct (amino acids 1-1363) (Drosophila melanogaster, UniProt Q99323-2 1-1363); experiment: co-purification (Flag affinity chromatography, stained SDS gel); heavy chain and both light chains co-expressed in Sf9 cells, purified via Flag affinity chromatography (HMM also by size exclusion chromatography); PageBlue-stained 4-12% Bis-Tris gel; conditions: partners not purified
T1 construct: numbers count on: NP_001014553.1; the heavy chain alone, for the rows of heavy chain with each light chain; whether it carries the Halo tag is not clear; also called HMM (160 kDa); myosin heavy chain

[5] = target: T2, Drosophila non-muscle myosin II heavy chain, full length (amino acids 1-1971) (Drosophila melanogaster, UniProt Q99323-2 1-1971); experiment: as above; conditions: partners not purified
T2 construct: the heavy chain alone, for the rows of heavy chain with each light chain; also called full-length (228 kDa); myosin heavy chain

| Molecule | stoichiometry N [1] | stoichiometry N [2] | Kapp (apparent actin affinity) of the actin-activated steady-state ATPase, NADH-linked assay at 25°C, 0-100 µM filamentous actin, Michaelis-Menten fit [3] [µM] | stoichiometry N [4] | stoichiometry N [5] |
| --- | --- | --- | --- | --- | --- |
| Drosophila myosin regulatory light chain (Sqh), mutant RLC-EE (natural protein) | 1 | 1 |  |  |  |
| Drosophila non-muscle myosin II heavy meromyosin (HMM) with wild-type RLC, phosphorylated by MLCK (from UniProt Q99323-2 1-1363; P40423 1-174; P54357 1-147) (complex) |  |  | 38.9 |  |  |
| Drosophila myosin regulatory light chain (Sqh), mutant RLC-AE (natural protein) | 1 | 1 |  |  |  |
| Drosophila myosin regulatory light chain (Sqh), mutant RLC-AA (natural protein) | 1 | 1 |  |  |  |
| Drosophila myosin regulatory light chain (Sqh), mutant RLC-TA (natural protein) | 1 | 1 |  |  |  |
| Drosophila myosin regulatory light chain (Sqh), mutant RLC-AS (natural protein) | 1 | 1 |  |  |  |
| B1 |  |  |  | 1 | 1 |
| B2 |  |  |  | 1 | 1 |
